Laboratory results reported in patent publication US20250304681A1 (BEIJING ECHO BIOTECH, published 2025).

Columns and labels:
[1] = target: T1, RAGE(1-404)-3xflag-mCherry (plasmid p318) on 293F cells (human); assay: flow cytometry on fixed p318-293F cells, 5 ug scFv in 100 uL, FITC anti-HA detection
T1 construct: also called p318 cells

Human-RAGE-ECD-Fc(IgG1) = target: T2, Human-RAGE-ECD-Fc(IgG1) (human); assay: ELISA, antigen coated at 2 ug/mL, anti-human kappa+lambda-HRP
T2 construct: also called P38406

Cyno-RAGE-ECD-Fc(IgG1) = target: T3, Cyno-RAGE-ECD-Fc(IgG1) (monkey (cyno)); assay: ELISA, antigen with and without NHS-biotin label coated at 4 ug/mL
T3 construct: also called P38408

Mouse-RAGE-ECD-Fc(IgG1) = target: T4, Mouse-RAGE-ECD-Fc(IgG1) (mouse); assay: as above
T4 construct: also called P38410
T4 sequence (chain, as listed by the source limits assumed): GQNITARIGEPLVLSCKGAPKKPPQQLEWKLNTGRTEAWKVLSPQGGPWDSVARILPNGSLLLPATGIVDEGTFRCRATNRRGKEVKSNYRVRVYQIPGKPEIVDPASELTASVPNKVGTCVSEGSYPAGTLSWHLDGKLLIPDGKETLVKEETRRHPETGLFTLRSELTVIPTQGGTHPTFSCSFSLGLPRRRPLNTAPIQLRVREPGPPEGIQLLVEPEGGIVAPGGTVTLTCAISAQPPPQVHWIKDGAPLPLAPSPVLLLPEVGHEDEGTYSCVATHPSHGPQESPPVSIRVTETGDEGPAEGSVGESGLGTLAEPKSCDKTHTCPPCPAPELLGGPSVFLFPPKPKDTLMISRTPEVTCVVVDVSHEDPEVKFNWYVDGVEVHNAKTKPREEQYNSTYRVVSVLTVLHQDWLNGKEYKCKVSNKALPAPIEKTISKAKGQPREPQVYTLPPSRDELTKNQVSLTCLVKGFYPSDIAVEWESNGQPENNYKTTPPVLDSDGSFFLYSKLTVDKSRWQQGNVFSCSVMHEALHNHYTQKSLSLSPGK

Human-RAGE-ECD-His = target: T5, Human-RAGE-ECD-His (human, UniProt Q15109 23-342); assay: as above
T5 construct: also called P38405

Cyno-RAGE-ECD-His = target: T6, Cyno-RAGE-ECD-His (monkey (cyno), UniProt Q15109 23-342 (human entry)); assay: as above
T6 construct: also called P38407
T6 chain: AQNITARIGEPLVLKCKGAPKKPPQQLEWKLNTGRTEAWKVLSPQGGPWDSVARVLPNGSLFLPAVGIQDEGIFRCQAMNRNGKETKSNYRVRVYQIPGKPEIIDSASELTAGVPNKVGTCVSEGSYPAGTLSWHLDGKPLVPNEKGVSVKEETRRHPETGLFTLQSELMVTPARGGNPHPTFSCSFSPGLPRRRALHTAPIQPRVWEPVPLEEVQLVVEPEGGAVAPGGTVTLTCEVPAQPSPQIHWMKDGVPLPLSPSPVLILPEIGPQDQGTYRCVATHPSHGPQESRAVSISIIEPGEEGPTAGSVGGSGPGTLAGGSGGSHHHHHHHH

Mouse-RAGE-ECD-His = target: T7, Mouse-RAGE-ECD-His (mouse, UniProt Q62151 23-340); assay: as above
T7 construct: also called P38409
T7 sequence (Q62151 other isoform, or with tags, fused parts or gaps): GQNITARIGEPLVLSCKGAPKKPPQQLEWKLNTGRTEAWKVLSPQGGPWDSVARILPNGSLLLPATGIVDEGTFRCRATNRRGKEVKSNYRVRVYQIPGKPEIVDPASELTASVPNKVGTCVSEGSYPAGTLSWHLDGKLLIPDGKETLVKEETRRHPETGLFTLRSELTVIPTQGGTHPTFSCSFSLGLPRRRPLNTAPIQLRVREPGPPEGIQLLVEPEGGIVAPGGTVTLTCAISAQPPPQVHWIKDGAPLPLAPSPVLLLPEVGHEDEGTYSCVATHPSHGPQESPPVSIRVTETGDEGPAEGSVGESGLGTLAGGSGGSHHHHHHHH

[2] = target: T8, RAGE(1-404)-3xflag-eBFP (plasmid p605) on HepG2 cells; assay: flow cytometry on fixed p605-HepG2 cells, 1 ug and 5 ug in 100 uL, FITC anti-HA detection
T8 construct: also called p605-HepG2 cells; p605 cells
Method: (5) 1 μg and 5 μg of antiRAGE(A90)-Fc were respectively added to 100 μL of the incubation system to incubate at 4° C. for 2 h. The cells were washed and resuspended with 0.5% BSA diluted in PBS.
(6) 1 μL of FITC-conjugated antiHA antibody was respectively added to cells without A90-Fc antibody and cells incubated with A90-Fc antibody to incubate at room temperature for 1 h. The cells were washed twice with PBS, and then resuspended with PBS.

B1: 6xHis-antiRAGE(A90)-scFv-G4S-HA (scFv)
scFv: HHHHHHQVQLVQSGAEVKKPGSSVKVSCKASGGTFNNYAINWARQAPGQGLEWMGRIVPFFDVTNYAQKFQGRVTITADKSTSTAYMELSSLRSEDTAIYYCAIGSFNWNSGAFDIWGQGTPVTVSSGGGGSGGGGSGGGGSNIQLTQSPSTLSASVGDRVTITCRASQSISSWLAWYQQKPGKAPKLLIYQASSLESGVPSRFSGSGSGTEFTLTIRSLQPEDFAVYFCQQYKDYPLTFGGGTKVDIKGGGGSYPYDVPDYA
notes: also called antiRAGE scFv antibody; antiRAGE-scFv
B1: binds [1].

B2: h11E6.16 (antibody, human IgG1, kappa, V domains shown)
VH: EIQLVQSGAEVKKPGASVKVSCKASGYTFTNFGMNWVRQAPGQGLEWMGYINTNTGESIYSEEFKGRFTFTLDTSTSTAYMELSSLRSEDTAVYFCARSRMVTAYGMDYWGQGTSVTVSS
VL: EIVMTQSPATLSLSPGERATLSCKASQNVGTAVAWYQQKPGQSPRLLIFSASNRYTGVPARFSGSGSGTDFTLTISSLQSEDFAVYFCQQYSSYPLTFGQGTKLEIKR
notes: also called h11E6.16 antibody (P38411); P38411
B2: binds (Human-RAGE-ECD-Fc(IgG1)); binds (Cyno-RAGE-ECD-Fc(IgG1)); binds (Mouse-RAGE-ECD-Fc(IgG1)). B2: binds (Human-RAGE-ECD-His); binds (Cyno-RAGE-ECD-His); binds (Mouse-RAGE-ECD-His).

B3: antiRAGE(A90)-Fc (antibody, human IgG1, kappa)
heavy: not shown
light: NIQLTQSPSTLSASVGDRVTITCRASQSISSWLAWYQQKPGKAPKLLIYQASSLESGVPSRFSGSGSGTEFTLTIRSLQPEDFAVYFCQQYKDYPLTFGGGTKVDIKRTVAAPSVFIFPPSDEQLKSGTASVVCLLNNFYPREAKVQWKVDNALQSGNSQESVTEQDSKDSTYSLSSTLTLSKADYEKHKVYACEVTHQGLSSPVTKSFNRGEC
notes: also called antiRAGE(A90)-Fc-G4S-HA; antiRAGE-Fc-G4S-HA-ALFA
B3: binds [2].
